In this assay the target is BPTF bromodomain (human). The assay can be described thus: ITC.

Where no end group is shown, it is not given here.

GKGLGK(Ac)GGAKR (not fully specified) [H4K12ac peptide] came in with a Kd of 69 ± 1 µM.

Values taken from PMC3135172 (Cell, 2011).
